# Assay results published in patent US20200262895A1 (Biogen, published 2020).
# Like-named read-outs stand apart in the source and are kept apart here.
# How the values were obtained:
# [1] = molecular target: T1, recombinant human tau, isoform Tau-F of 441 aa (hTau40) (human, UniProt P10636 1-758); assay: direct ELISA on coated recombinant tau (rTau)
# T1 construct: Bought from rPeptide (Bogart, GA, USA); coated on ELISA plates, blotted, or spotted as overlapping peptides; also called full-length tau; rTau
# [2] = molecular target: T2, PHFTau (paired helical filaments containing pathologically phosphorylated tau filaments, extracted from AD … (human, UniProt P10636-8 1-441, limits assumed, pathologically phosphorylated (sites of the preparation not listed), aggregated filaments)); assay: direct ELISA on coated PHFTau
# T2 construct: Brain extract, not a single defined isoform; also called human PHF tau; pathologically modified PHFTau
# [3] = molecular target: T3, normal tau in wild type mouse brain (Wt) (mouse, UniProt P10637-2 1-430, limits assumed); assay: immunohistochemistry on brain tissue sections
# T3 construct: Control tissue in immunohistochemistry
# [4] = molecular target: T1, recombinant human tau, isoform Tau-F of …; assay: direct ELISA, hTau40 coated at 1 ug/ml
# Procedure: The EC₅₀ values were estimated by a non-linear regression using GraphPad Prism software.
# ELISA plates were coated with recombinant human tau (hTau40, 1 ug/ml), PHFTau (1:100) and control preparation (1:100), and incubated with varying antibody concentrations.
# [5] = molecular target: T1, recombinant human tau, isoform Tau-F of …; assay: ELISA on recombinant Tau, absorbance at 450 nm
# [6] = molecular target: T1, recombinant human tau, isoform Tau-F of …; assay: ELISA on recombinant Tau, absorbance at 450 nm; remark: listed apart in the source
# T1 sequence (P10636 other isoform, or with tags, fused parts or gaps limits assumed): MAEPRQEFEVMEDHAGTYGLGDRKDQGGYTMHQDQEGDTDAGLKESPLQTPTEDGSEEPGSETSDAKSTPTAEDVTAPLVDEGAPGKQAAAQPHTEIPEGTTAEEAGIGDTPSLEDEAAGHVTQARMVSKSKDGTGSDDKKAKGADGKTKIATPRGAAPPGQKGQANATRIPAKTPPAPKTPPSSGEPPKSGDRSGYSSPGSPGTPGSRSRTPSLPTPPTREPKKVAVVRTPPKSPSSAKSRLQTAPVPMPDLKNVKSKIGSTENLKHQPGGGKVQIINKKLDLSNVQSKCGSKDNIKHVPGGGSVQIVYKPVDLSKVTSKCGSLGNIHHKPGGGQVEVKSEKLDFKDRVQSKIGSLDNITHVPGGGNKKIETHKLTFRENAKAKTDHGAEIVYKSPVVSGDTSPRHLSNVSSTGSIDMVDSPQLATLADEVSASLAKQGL
# T3 sequence (P10637 other isoform, or with tags, fused parts or gaps limits assumed): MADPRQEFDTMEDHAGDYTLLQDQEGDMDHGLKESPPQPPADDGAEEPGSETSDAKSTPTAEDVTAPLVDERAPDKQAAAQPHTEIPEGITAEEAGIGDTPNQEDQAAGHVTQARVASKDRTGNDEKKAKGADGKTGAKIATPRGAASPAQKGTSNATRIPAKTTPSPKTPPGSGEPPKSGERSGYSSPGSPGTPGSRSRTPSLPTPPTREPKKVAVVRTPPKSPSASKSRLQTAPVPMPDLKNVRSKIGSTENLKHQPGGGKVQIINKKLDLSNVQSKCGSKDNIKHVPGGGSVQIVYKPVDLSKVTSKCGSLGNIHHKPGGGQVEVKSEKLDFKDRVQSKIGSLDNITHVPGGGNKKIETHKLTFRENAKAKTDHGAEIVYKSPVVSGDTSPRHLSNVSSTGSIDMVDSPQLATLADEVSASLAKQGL
# T2 sequence (P10636 other isoform, or with tags, fused parts or gaps limits assumed): as the sequence (P10636 other isoform, or with tags, fused parts or gaps limits assumed) above
Binder,EC50 [1],other results
"recombinant human antibody NI-105.22E1 (germlined) (antibody, human IgG1, V domains shown, Complete recombinant human IgG1 by the methods) VH: EVQLVQSGAEVKKPGESLKISCKGSGYRFTTYWIGWVRQMPGKGLEWMGIIYPGDSDTRYSPSYQGQVTISADKSISTAYLQWSSLKASDTGMYYCARVAGDIGYENYYYYGMDVWGQGTTVTVSS VL: not shown",1.1 nM,–
"recombinant human antibody NI-105.39E2 (germlined) (antibody, human IgG1, V domains shown, Complete recombinant human IgG1 by the methods) VH: EVQLVESGGGLVQPGGSLRLSCAASGFTFSAYGMNWVRQAPGKGLEWVAHITGSGTPIFYADSVKGRFTISRDNAKSSLYLQMNSLRNDDTALYFCVRGTVDYWGQGTLVTVSS VL: QAGLTQPPSVSKDLRQTATLTCSGNSNNVGNQGAAWLQQFPGHPPKLLFYENINRPSGISERFSASRSGNTASLTITGLQPEDEADYYCSAWDGHLNAWVFGGGTKLTVL",0.7 nM,–
"recombinant human antibody NI-105.19C6 (germlined) (antibody, human IgG1, V domains shown, Complete recombinant human IgG1 by the methods) VH: EVQLVQSGAEVKKPGESLKISCKASGYSFISYWVGWVRQMPGKGLEWMGIIYPGDSDTRYSPSFEGQVSISADKSISTAYLQWTSLKASDTAMYYCARHWGPAAVTDSPWFGPWGQGTLVTVSS VL: not shown",4 nM,–
"recombinant human antibody NI-105.17C1 (not germlined, as used in Table 7) (antibody, human IgG1, V domains shown, Complete human IgG1 by the methods) VH: EVQLVQSGAEVKKPGESLKISCKAFGYSFTNFWIGWVRQVPGKGLEWVGIIYPGDSDTRYSPSFQGQVTISADKSIDTAYLQWGHLKASDSAMYFCARRGFWTGSQIEYWGQGTLVTVSS VL: QSALTQPPSASGSPGHSVTISCTGTSSDVGNYSFVSWYQQYPGKAPKVIIYDVSKRSSGVPDRFFGSKSANTASLTVSGVQEEDEADYFCSSYGGSKYPWVFGGGTKLTVL",3.3 nM,EC50 [2]: 4.7 nM
"recombinant human antibody NI-105.9C4 (germlined) (antibody, human IgG1, V domains shown, Complete human IgG1 by the methods) VH: QVQLVQSGAEVKKPGASVKVSCKASGYIFTAFFMHWVRQAPGQGLEWMGWINPDSGATKYAHNFQGRVTMTRDTSISTAFMELSGLKSDDTGVYYCATGMAVTGNFWGQGTLVTVSS VL: SYELTQPPSVSVSPGQTARITCSGDVLAETYARWFQQKPGQAPVLVMYRDRERPAGIPERFSGSSSGNTVTLTISGAQAEDEAVYHCHSVADNNLDWVFGGGTKLTVL",5.2 nM,–
"recombinant human antibody NI-105.40E8 (NI-105.40E8-hIgG1, germlined) (antibody, V domains shown, Heavy chain is human IgG1) VH: EVQLVESGGGLVQPGGSLRLSCAASGFTFPNYVMTWVRQAPGKGLEWVSGISGSGGSTDYADSVKGRFTISRDNSKNTLYLQMNSLRVEDTALYYCAKGSGGIRGQGTMVTVSS VL: QSALTQPRSVSGSPGQSVTISCTGTSSDVGGYNYVSWHQQHPGKAPKLLIYDVTKRPSGVPDRFSGSKSGNTAALTISGLQAEDEADYYCHSYVGSYTLVFGGGTKLTVLG",–,binding result [3]: no binding
"recombinant human antibody NI-105.60E7 (germlined) (antibody, human IgG1, V domains shown, Complete recombinant human IgG1 by the methods) VH: EVQLVESGGGFVRPGGSITLSCATSGFTFTKAWMTWVRQAPVKGLEWIGHIKTRIEGATTDYAAPVEGRFTISRDDSKNMVYLQMNSLKTEDSGIYYCSTDFDYWGQGTLVTVSS VL: DVVMTQSPLSLPVTLGQPASISCTSSQSLLYSDGNTYLNWFQQRPGQSPRRLMYKVSKRDPGVPDRFSGSGSGTDFTLSISRVEAEDVGVYYCMQGSLWPRYTFGQGTKVEIK",0.18 nM,–
"recombinant human antibody NI-105.26B12 (germlined) (antibody, human IgG1, V domains shown, Complete recombinant human IgG1 by the methods) VH: QVQLVESGGGVVQPGRSLRLSCAASGFTFTRYGMHWVRQAPGKGLEWVAVIWYDGTNKYYADSLQGRFTISRDTSTNTLYLQMNGLRVEDRAVYYCAREGFQGAIDYWGQGTLVTVSS VL: not shown",2.9 nM,–
"recombinant human antibody NI-105.6L9 (germlined) (antibody, human IgG1, V domains shown, Complete recombinant human IgG1 by the methods) VH: EVQLVESGGGLVQPGGSLRLSCAGTRFTFSTYAMGWVRQAPGRGLEWVSAIGGSGDSTSYADSVKGRFTISRDNSKNTLYLQMNSLRAEDTAVYYCAKGVYDYLWGSYRLFDYWGQGTLVTVSS VL: SYVLTQPPSVSVAPGQTARFTCGGNNIASKSVHWYQQKPGQAPVLVVYDDSDRPSRIPERFSGSNSGNTATLTISRVEAGDEADYYCQVWDSTSDHVVFGGGTKLTVL",2.5 nM,–
"recombinant human antibody NI-105.29G10 (germlined) (antibody, human IgG1, V domains shown, Complete recombinant human IgG1 by the methods) VH: EVQLVESGGDLVQPGGSLRLSCAASGFDFSGYSMAWVRQAPGKGLEWVSYISGTYVSGGTGTMYYLDSVKGRFFISRDDATSSLYLQMDSLRDEDTAVYYCARVYDYGEDWGQGTLVTVSS VL: not shown",3.8 nM,EC50 [2]: 5.3 nM
"recombinant human antibody NI-105.4E4 (antibody, V domains shown, Asn-30 of the VH carried an N-glycan when the chimeric ch4E4 was expressed in CHO cells; the letter is unchanged., Human antibody described in US 2012/0087861) VH: EVQLVESGGGLVQPGGSLKLSCAASGFNFNISAIHWVRQASGKGLEWVGRIRSKSHNYATLYAASLKGRFTLSRDDSRNTAYLQMSSLQTEDMAVYYCTVLSANYDTFDYWGQGTLVTVSS VL: LPVLTQPPSVSVSPGQTARISCFGDTLPKQYTYWYQQKPGQAPVLVIYKDTERPSGIPERFSGSSSGTTVTLTISGVQAEDEADYYCLSADNSATWVFGGGTKVTVL",–,EC50 [4]: 2.4 nM
"recombinant human antibody NI-105.14E2 (germlined) (antibody, human IgG1, V domains shown, Complete recombinant human IgG1 by the methods) VH: EVQLVQSGAEVKKPGDSLRISCKASGYNFPNYWIGWVRQMPGKGLEWMGIIYPGDSDIRYSPSFQGHVTISSDKSITTAYLQWTSLKVADSAMYYCARVERPDKGGWFGPWGQGTLVTVSS VL: DIVMTQSPDSLAVSLGERATINCKSSQTLLYTSNNQNYLAWYQHKPGQPPKVLIYWASTREYGVPDRFSGSGSGTDFTLTISSLQPEDVAVYYCQQYYNSPYTFGQGTKLEIK",0.65 nM,–
"recombinant human antibody NI-105.48E5 (germlined) (antibody, V domains shown, Complete recombinant human IgG1 by the methods) VH: EVQLVESGGGLVQPGGSLKLSCAASGFTFSGSAMHWVRQASGKGLEWVGRIRSKANSYATAYAASVKGRFTISRDDSKNTAYLQMNSLKTEDTAVYYCTSPTVTTEVWGQGTLVTVSS VL: not shown",–,binding result [3]: no binding
"recombinant human antibody NI-105.12E12 (germlined) (antibody, human IgG1, V domains shown, Complete recombinant human IgG1 by the methods) VH: EVQLVESGGGLVQPGGSLKLSCAASGFSFSDSAFHWARQASGKGLEWVGRIRSKGNNYATAYAASVKGRFTVSRDDSKNTTYLQMNSLKTDDTAIYYCTRQGPSYGGINWGLGTLVTVSS VL: not shown",28.6 nM,–
ch17C1(N31Q) mIgG2a (antibody) heavy: EVQLVQSGAEVKKPGESLKISCKAFGYSFTNFWIGWVRQVPGKGLEWVGIIYPGDSDTRYSPSFQGQVTISADKSIDTAYLQWGHLKASDSAMYFCARRGFWTGSQIEYWGQGTQVTVSSAKTTAPSVYPLAPVCGDTTGSSVTLGCLVKGYFPEPVTLTWNSGSLSSGVHTFPAVLQSDLYTLSSSVTVTSSTWPSQSITCNVAHPASSTKVDKKIEPRGPTIKPCPPCKCPAPNLLGGPSVFIFPPKIKDVLMISLSPIVTCVVVDVSEDDPDVQISWFVNNVEVHTAQTQTHREDYNSTLRVVSALPIQHQDWMSGKEFKCKVNNKDLPAPIERTISKPKGSVRAPQVYVLPPPEEEMTKKQVTLTCMVTDFMPEDIYVEWTNNGKTELNYKNTEPVLDSDGSYFMYSKLRVEKKNWVERNSYSCSVVHEGLHNHHTTKSFSRTPGK light: QSALTQPPSASGSPGHSVTISCTGTSSDVGQYSFVSWYQQYPGKAPKIIIYDVSKRSSGVPDRFFGSKSANTASLTVSGVQEEDEADYFCSSYGGSKYPWVFGGGTKLTVLGQPKSSPSVTLFPPSSEELETNKATLVCTITDFYPGVVTVDWKVDGTPVTQGMETTQPSKQSNNKYMASSYLTLTARAWERHSSYSCQVTHEGHTVEKSLSRADCS,–,EC50 (read off the curve) [5]: ~0.8 µg/mL; EC50 (read off the curve) [6]: ~0.3 µg/mL
"ch17C1(N31Q) mIgG1 Agly (antibody, Aglycosylated Fc; also called ch17C1-mIgG1-Agly; ch17C1 Agly) heavy: EVQLVQSGAEVKKPGESLKISCKAFGYSFTNFWIGWVRQVPGKGLEWVGIIYPGDSDTRYSPSFQGQVTISADKSIDTAYLQWGHLKASDSAMYFCARRGFWTGSQIEYWGQGTQVTVSSAKTTPPSVYPLAPGSAAQTNSMVTLGCLVKGYFPEPVTVTWNSGSLSSGVHTFPAVLQSDLYTLSSSVTVPSSTWPSETVTCNVAHPASSTKVDKKIVPRDCGCKPCICTVPEVSSVFIFPPKPKDVLTITLTPKVTCVVVDISKDDPEVQFSWFVDDVEVHTAQTQPREEQFQSTFRSVSELPIMHQDWLNGKEFKCRVNSAAFPAPIEKTISKTKGRPKAPQVYTIPPPKEQMAKDKVSLTCMITDFFPEDITVEWQWNGQPAENYKNTQPIMDTDGSYFVYSKLNVQKSNWEAGNTFTCSVLHEGLHNHHTEKSLSHSPGK light: QSALTQPPSASGSPGHSVTISCTGTSSDVGQYSFVSWYQQYPGKAPKIIIYDVSKRSSGVPDRFFGSKSANTASLTVSGVQEEDEADYFCSSYGGSKYPWVFGGGTKLTVLGQPKSSPSVTLFPPSSEELETNKATLVCTITDFYPGVVTVDWKVDGTPVTQGMETTQPSKQSNNKYMASSYLTLTARAWERHSSYSCQVTHEGHTVEKSLSRADCS",–,EC50 (read off the curve) [5]: ~0.9 µg/mL
"ch17C1(N31Q, I48V) mIgG2a (antibody, V domains shown, The sentence giving the chains names the antibody 'ch17C1(N31Q) mIgG2a' but lists the (N31Q, I48V) light chain) VH: EVQLVQSGAEVKKPGESLKISCKAFGYSFTNFWIGWVRQVPGKGLEWVGIIYPGDSDTRYSPSFQGQVTISADKSIDTAYLQWGHLKASDSAMYFCARRGFWTGSQIEYWGQGTQVTVSS VL: QSALTQPPSASGSPGHSVTISCTGTSSDVGQYSFVSWYQQYPGKAPKVIIYDVSKRSSGVPDRFFGSKSANTASLTVSGVQEEDEADYFCSSYGGSKYPWVFGGGTKLTVLG",–,EC50 (read off the curve) [6]: ~0.3 µg/mL
"chimeric NI-105.17C1 (ch17C1), mouse IgG2a/lambda (antibody, V domains shown, N-glycan on Asn-31 (CDR1), fully occupied on CHO expression, also called ch17C1-mIgG2a) VH: EVQLVQSGAEVKKPGESLKISCKAFGYSFTNFWIGWVRQVPGKGLEWVGIIYPGDSDTRYSPSFQGQVTISADKSIDTAYLQWGHLKASDSAMYFCARRGFWTGSQIEYWGQGTQVTVSS VL: QSALTQPPSASGSPGHSVTISCTGTSSDVGNYSFVSWYQQYPGKAPKIIIYDVSKRSSGVPDRFFGSKSANTASLTVSGVQEEDEADYFCSSYGGSKYPWVFGGGTKLTVLG",–,EC50 (read off the curve) [5]: ~0.8 µg/mL
